Measurements as given in PMC8298264, “Function of cofactor Akirin2 in the regulation of gene expression in model human neutrophil-like HL60 cells” (Bioscience Reports, 2021).

B1: sp¦P54577¦SYYC_HUMAN (protein, UniProt P54577 1-528, looked up)
Tyrosine--tRNA ligase, …: MGDAPSPEEKLHLITRNLQEVLGEEKLKEILKERELKIYWGTATTGKPHVAYFVPMSKIADFLKAGCEVTILFADLHAYLDNMKAPWELLELRVSYYENVIKAMLESIGVPLEKLKFIKGTDYQLSKEYTLDVYRLSSVVTQHDSKKAGAEVVKQVEHPLLSGLLYPGLQALDEEYLKVDAQFGGIDQRKIFTFAEKYLPALGYSKRVHLMNPMVPGLTGSKMSSSEEESKIDLLDRKEDVKKKLKKAFCEPGNVENNGVLSFIKHVLFPLKSEFVILRDEKWGGNKTYTAYVDLEKDFAAEVVHPGDLKNSVEVALNKLLDPIREKFNTPALKKLASAAYPDPSKQKPMAKGPAKNSEPEEVIPSRLDIRVGKIITVEKHPDADSLYVEKIDVGEAEPRTVVSGLVQFVPKEELQDRLVVVLCNLKPQKMRGVESQGMLLCASIEGINRQVEPLDPPAGSAPGEHVFVKGYEKGQPDEELKPKKKVFEKLQADFKISEECIAQWKQTNFMTKLGSISCKSLKGGNIS
B2: sp¦Q9HDC9¦APMAP_HUMAN (protein, UniProt Q9HDC9 2-416, looked up)
Adipocyte plasma …: SEADGLRQRRPLRPQVVTDDDGQAPEAKDGSSFSGRVFRVTFLMLAVSLTVPLLGAMMLLESPIDPQPLSFKEPPLLLGVLHPNTKLRQAERLFENQLVGPESIAHIGDVMFTGTADGRVVKLENGEIETIARFGSGPCKTRDDEPVCGRPLGIRAGPNGTLFVADAYKGLFEVNPWKREVKLLLSSETPIEGKNMSFVNDLTVTQDGRKIYFTDSSSKWQRRDYLLLVMEGTDDGRLLEYDTVTREVKVLLDQLRFPNGVQLSPAEDFVLVAETTMARIRRVYVSGLMKGGADLFVENMPGFPDNIRPSSSGGYWVGMSTIRPNPGFSMLDFLSERPWIKRMIFKLFSQETVMKFVPRYSLVLELSDSGAFRRSLHDPDGLVATYISEVHEHDGHLYLGSFRSPFLCRLSLQAV
B3: sp¦P42167¦LAP2B_HUMAN (protein, UniProt P42167 1-454, looked up)
Lamina-associated polypeptide …: MPEFLEDPSVLTKDKLKSELVANNVTLPAGEQRKDVYVQLYLQHLTARNRPPLPAGTNSKGPPDFSSDEEREPTPVLGSGAAAAGRSRAAVGRKATKKTDKPRQEDKDDLDVTELTNEDLLDQLVKYGVNPGPIVGTTRKLYEKKLLKLREQGTESRSSTPLPTISSSAENTRQNGSNDSDRYSDNEEDSKIELKLEKREPLKGRAKTPVTLKQRRVEHNQSYSQAGITETEWTSGSSKGGPLQALTRESTRGSRRTPRKRVETSEHFRIDGPVISESTPIAETIMASSNESLVVNRVTGNFKHASPILPITEFSDIPRRAPKKPLTRAEVGEKTEERRVERDILKEMFPYEASTPTGISASCRRPIKGAAGRPLELSDFRMEESFSSKYVPKYVPLADVKSEKTKKGRSIPVWIKILLFVVVAVFLFLVYQAMETNQVNPFSNFLHVDPRKSN
B4: sp¦O96008¦TOM40_HUMAN (protein, UniProt O96008 1-361, looked up)
Mitochondrial import receptor …: MGNVLAASSPPAGPPPPPAPALVGLPPPPPSPPGFTLPPLGGSLGAGTSTSRSSERTPGAATASASGAAEDGACGCLPNPGTFEECHRKCKELFPIQMEGVKLTVNKGLSNHFQVNHTVALSTIGESNYHFGVTYVGTKQLSPTEAFPVLVGDMDNSGSLNAQVIHQLGPGLRSKMAIQTQQSKFVNWQVDGEYRGSDFTAAVTLGNPDVLVGSGILVAHYLQSITPCLALGGELVYHRRPGEEGTVMSLAGKYTLNNWLATVTLGQAGMHATYYHKASDQLQVGVEFEASTRMQDTSVSFGYQLDLPKANLLFKGSVDSNWIVGATLEKKLPPLPLTLALGAFLNHRKNKFQCGFGLTIG
B5: sp¦O75607¦NPM3_HUMAN (protein, UniProt O75607 2-178, looked up)
Nucleoplasmin-3: AAGTAAALAFLSQESRTRAGGVGGLRVPAPVTMDSFFFGCELSGHTRSFTFKVEEEDDAEHVLALTMLCLTEGAKDECNVVEVVARNHDHQEIAVPVANLKLSCQPMLSLDDFQLQPPVTFRLKSGSGPVRITGRHQIVTMSNDVSEEESEEEEEDSDEEEVELCPILPAKKQGGRP
B6: sp¦Q8TCS8¦PNPT1_HUMAN (protein, UniProt Q8TCS8 46-783, looked up)
Polyribonucleotide …: AVAVDLGNRKLEISSGKLARFADGSAVVQSGDTAVMVTAVSKTKPSPSQFMPLVVDYRQKAAAAGRIPTNYLRREIGTSDKEILTSRIIDRSIRPLFPAGYFYDTQVLCNLLAVDGVNEPDVLAINGASVALSLSDIPWNGPVGAVRIGIIDGEYVVNPTRKEMSSSTLNLVVAGAPKSQIVMLEASAENILQQDFCHAIKVGVKYTQQIIQGIQQLVKETGVTKRTPQKLFTPSPEIVKYTHKLAMERLYAVFTDYEHDKVSRDEAVNKIRLDTEEQLKEKFPEADPYEIIESFNVVAKEVFRSIVLNEYKRCDGRDLTSLRNVSCEVDMFKTLHGSALFQRGQTQVLCTVTFDSLESGIKSDQVITAINGIKDKNFMLHYEFPPYATNEIGKVTGLNRRELGHGALAEKALYPVIPRDFPFTIRVTSEVLESNGSSSMASACGGSLALMDSGVPISSAVAGVAIGLVTKTDPEKGEIEDYRLLTDILGIEDYNGDMDFKIAGTNKGITALQADIKLPGIPIKIVMEAIQQASVAKKEILQIMNKTISKPRASRKENGPVVETVQVPLSKRAKFVGPGGYNLKKLQAETGVTISQVDEETFSVFAPTPSAMHEARDFITEICKDDQEQQLEFGAVYTATITEIRDTGVMVKLYPNMTAVLLHNTQLDQRKIKHPTALGLEVGQEIQVKYFGRDPADGRMRLSRKVLQSPATTVVRTLNDRSSIVMGEPISQSSSNSQ
B7: sp¦Q99496¦RING2_HUMAN (protein, UniProt Q99496 2-336, looked up)
E3 ubiquitin-protein ligase …: SQAVQTNGTQPLSKTWELSLYELQRTPQEAITDGLEIVVSPRSLHSELMCPICLDMLKNTMTTKECLHRFCADCIITALRSGNKECPTCRKKLVSKRSLRPDPNFDALISKIYPSRDEYEAHQERVLARINKHNNQQALSHSIEEGLKIQAMNRLQRGKKQQIENGSGAEDNGDSSHCSNASTHSNQEAGPSNKRTKTSDDSGLELDNNNAAMAIDPVMDGASEIELVFRPHPTLMEKDDSAQTRYIKTSGNATVDHLSKYLAVRLALEELRSKGESNQMNLDTASEKQYTIYIATASGQFTVLNGSFSLELVSEKYWKVNKPMELYYAPTKEHK
B8: sp¦P61009¦SPCS3_HUMAN (protein, UniProt P61009 1-180, looked up)
Signal peptidase complex …: MNTVLSRANSLFAFSLSVMAALTFGCFITTAFKDRSVPVRLHVSRIMLKNVEDFTGPRERSDLGFITFDITADLENIFDWNVKQLFLYLSAEYSTKNNALNQVVLWDKIVLRGDNPKLLLKDMKTKYFFFDDGNGLKGNRNVTLTLSWNVVPNAGILPLVTGSGHVSVPFPDTYEITKSY
B9: sp¦P43034¦LIS1_HUMAN (protein, UniProt P43034 1-410, looked up)
Platelet-activating factor …: MVLSQRQRDELNRAIADYLRSNGYEEAYSVFKKEAELDVNEELDKKYAGLLEKKWTSVIRLQKKVMELESKLNEAKEEFTSGGPLGQKRDPKEWIPRPPEKYALSGHRSPVTRVIFHPVFSVMVSASEDATIKVWDYETGDFERTLKGHTDSVQDISFDHSGKLLASCSADMTIKLWDFQGFECIRTMHGHDHNVSSVAIMPNGDHIVSASRDKTIKMWEVQTGYCVKTFTGHREWVRMVRPNQDGTLIASCSNDQTVRVWVVATKECKAELREHEHVVECISWAPESSYSSISEATGSETKKSGKPGPFLLSGSRDKTIKMWDVSTGMCLMTLVGHDNWVRGVLFHSGGKFILSCADDKTLRVWDYKNKRCMKTLNAHEHFVTSLDFHKTAPYVVTGSVDQTVKVWECR
B10: sp¦Q15654¦TRIP6_HUMAN (protein, UniProt Q15654 1-476, looked up)
Thyroid receptor-interacting …: MSGPTWLPPKQPEPARAPQGRAIPRGTPGPPPAHGAALQPHPRVNFCPLPSEQCYQAPGGPEDRGPAWVGSHGVLQHTQGLPADRGGLRPGSLDAEIDLLSSTLAELNGGRGHASRRPDRQAYEPPPPPAYRTGSLKPNPASPLPASPYGGPTPASYTTASTPAGPAFPVQVKVAQPVRGCGPPRRGASQASGPLPGPHFPLPGRGEVWGPGYRSQREPGPGAKEEAAGVSGPAGRGRGGEHGPQVPLSQPPEDELDRLTKKLVHDMNHPPSGEYFGQCGGCGEDVVGDGAGVVALDRVFHVGCFVCSTCRAQLRGQHFYAVERRAYCEGCYVATLEKCATCSQPILDRILRAMGKAYHPGCFTCVVCHRGLDGIPFTVDATSQIHCIEDFHRKFAPRCSVCGGAIMPEPGQEETVRIVALDRSFHIGCYKCEECGLLLSSEGECQGCYPLDGHILCKACSAWRIQELSATVTTDC
B11: sp¦Q9Y5Y2¦NUBP2_HUMAN (protein, UniProt Q9Y5Y2 1-271, looked up)
Cytosolic Fe-S cluster …: MEAAAEPGNLAGVRHIILVLSGKGGVGKSTISTELALALRHAGKKVGILDVDLCGPSIPRMLGAQGRAVHQCDRGWAPVFLDREQSISLMSVGFLLEKPDEAVVWRGPKKNALIKQFVSDVAWGELDYLVVDTPPGTSDEHMATIEALRPYQPLGALVVTTPQAVSVGDVRRELTFCRKTGLRVMGIVENMSGFTCPHCTECTSVFSRGGGEELAQLAGVPFLGSVPLDPALMRTLEEGHDFIQEFPGSPAFAALTSIAQKILDATPACLP
B12: sp¦P40926¦MDHM_HUMAN (protein, UniProt P40926 25-338, looked up)
Malate dehydrogenase, …: AKVAVLGASGGIGQPLSLLLKNSPLVSRLTLYDIAHTPGVAADLSHIETKAAVKGYLGPEQLPDCLKGCDVVVIPAGVPRKPGMTRDDLFNTNATIVATLTAACAQHCPEAMICVIANPVNSTIPITAEVFKKHGVYNPNKIFGVTTLDIVRANTFVAELKGLDPARVNVPVIGGHAGKTIIPLISQCTPKVDFPQDQLTALTGRIQEAGTEVVKAKAGAGSATLSMAYAGARFVFSLVDAMNGKEGVVECSFVKSQETECTYFSTPLLLGKKGIEKNLGIGKVSSFEEKMISDAIPELKASIKKGEDFVKTLK

The molecules below were run on human HL60 cells (assay: SWATH-MS proteomics, differential protein representation, akirin2 KO vs WT HL60 cells). Details: SWATH-MS, akirin2 KO vs WT HL60 cells, under-represented in KO.
Type: cell-based
In short: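 Three biological replicates per genotype; 150 µg protein FASP/trypsin digested; IDA library (3 µg digest); SWATH variable windows, 5 µg/sample, 3.6 s cycle; gradient 5–30% B 120 min then 30–60% B 15 min; 1% global FDR; TAS normalization.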

Q: Which “Fold Change” value does the source give for B1 here?
A: 0.6907

Q: And the “Log (Fold Change)” value?
A: -0.1607

Q: Which “Fold Change” value does the source give for B2 here?
A: 0.6899

Q: What about the “Log (Fold Change)” value of the same molecule?
A: -0.1612

Q: What does the source list for B3?
A: Fold Change: 0.7013; Log (Fold Change): -0.1541

Q: B4 was tested. Which “Fold Change” value did it give?
A: 0.6912

Q: And the “Log (Fold Change)” value?
A: -0.1604

Q: How did the “Fold Change” value turn out when B5 was run?
A: 0.6936

Q: What about the “Log (Fold Change)” value of the same molecule?
A: -0.1589

Q: B6 was tested. Which “Fold Change” value did it give?
A: 0.6886

Q: What about the “Log (Fold Change)” value of the same molecule?
A: -0.162

Q: With B7 as the molecule, how does the “Fold Change” value read?
A: 0.6992

Q: And the “Log (Fold Change)” value?
A: -0.1554

Q: B8 was tested. Which “Fold Change” value did it give?
A: 0.6925

Q: And the “Log (Fold Change)” value?
A: -0.1596

Same assay, conditions: akirin2 KO vs WT HL60 cells; sheet "Under-represented in KO"

Q: Which “Fold Change” value does the source give for B9 here?
A: 0.6845

Q: What about the “Log (Fold Change)” value of the same molecule?
A: -0.1646

Q: B10 was tested. Which “Fold Change” value did it give?
A: 0.6873

Q: What about the “Log (Fold Change)” value of the same molecule?
A: -0.1629

Q: What does the source list for B11?
A: Fold Change: 0.6881; Log (Fold Change): -0.1623

Q: What does the source list for B12?
A: Fold Change: 0.6852; Log (Fold Change): -0.1642
